For the assay, the target named is T1, TIM-3重组蛋白 (human, UniProt Q8TDQ0 22-200, limits assumed).
T1 construct: also called 重组TIM-3蛋白; 固定化TIM-3
T1 sequence (looked up): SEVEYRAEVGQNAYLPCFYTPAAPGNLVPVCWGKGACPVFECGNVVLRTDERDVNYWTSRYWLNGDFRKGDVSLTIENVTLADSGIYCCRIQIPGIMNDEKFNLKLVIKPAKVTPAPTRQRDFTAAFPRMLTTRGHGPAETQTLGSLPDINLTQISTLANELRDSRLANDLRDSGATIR
Description: ELISA: TIM-3 coated at 5 ug/mL, biotinylated sdAb titrated 1:2 from 200 ug/mL, HRP-streptavidin, Prism fit.

B1: TIM-3-CX153 (VHH)
VHH: QSMEESGGRLVKPDETLTLTCTVSGFSLSSYSMIWVRQAPGKGLEWIGIIGTTGNTYYASWAKGRFTISKTSTTVDLKMTSLTSEDTATYFCARYYADGVFDLWGQGTLVTVSS
notes: Expressed in E. coli BL21 from pET28 and purified on a His nickel column; also called TIM-3-CX153-HisFlag; TIM-3-CX153单抗
By Kd is commonly meant the concentration at which binding is half-saturated. For the molecule B1, the affinity, expressed as Kd, was 278 nM.

Values taken from CN110938146A (UNIV HUAZHONG AGRICULTURAL, dated 2020).
